Biological target: vps29_human VPS29 (UniProt Q9UBQ0)

Effect of a mutation on the interaction, disrupting interaction strength:
Vacuolar protein sorting-associated protein 35 (Homo sapiens) (from UniProt Q96QK1) T629D;L630A;G633D;R637D
Vacuolar protein sorting-associated protein 35 (Homo sapiens) (from UniProt Q96QK1) N725A;Y729A
Vacuolar protein sorting-associated protein 35 (Homo sapiens) (from UniProt Q96QK1) H769A;N772A;H776A
Vacuolar protein sorting-associated protein 35 (Homo sapiens) (from UniProt Q96QK1) L579D;R582D;Q586A;L589D
Vacuolar protein sorting-associated protein 35 (Homo sapiens) (from UniProt Q96QK1) T672D;H675D
Vacuolar protein sorting-associated protein 35 (Homo sapiens) (from UniProt Q96QK1) F534D;F541D

From IntAct's records for PubMed 17891154
